This is an account of results in US20180177763A1, “SMALL MOLECULES THAT MIMIC OR ANTAGONIZE ACTIONS OF GRANULOCYTE COLONY-STIMULATING-FACTOR (G-CSF)” (published 2018).

Assay [1] concerns the target T1, Granulocyte-colony stimulating factor receptor (G-CSF-R) (human).
T1 chain: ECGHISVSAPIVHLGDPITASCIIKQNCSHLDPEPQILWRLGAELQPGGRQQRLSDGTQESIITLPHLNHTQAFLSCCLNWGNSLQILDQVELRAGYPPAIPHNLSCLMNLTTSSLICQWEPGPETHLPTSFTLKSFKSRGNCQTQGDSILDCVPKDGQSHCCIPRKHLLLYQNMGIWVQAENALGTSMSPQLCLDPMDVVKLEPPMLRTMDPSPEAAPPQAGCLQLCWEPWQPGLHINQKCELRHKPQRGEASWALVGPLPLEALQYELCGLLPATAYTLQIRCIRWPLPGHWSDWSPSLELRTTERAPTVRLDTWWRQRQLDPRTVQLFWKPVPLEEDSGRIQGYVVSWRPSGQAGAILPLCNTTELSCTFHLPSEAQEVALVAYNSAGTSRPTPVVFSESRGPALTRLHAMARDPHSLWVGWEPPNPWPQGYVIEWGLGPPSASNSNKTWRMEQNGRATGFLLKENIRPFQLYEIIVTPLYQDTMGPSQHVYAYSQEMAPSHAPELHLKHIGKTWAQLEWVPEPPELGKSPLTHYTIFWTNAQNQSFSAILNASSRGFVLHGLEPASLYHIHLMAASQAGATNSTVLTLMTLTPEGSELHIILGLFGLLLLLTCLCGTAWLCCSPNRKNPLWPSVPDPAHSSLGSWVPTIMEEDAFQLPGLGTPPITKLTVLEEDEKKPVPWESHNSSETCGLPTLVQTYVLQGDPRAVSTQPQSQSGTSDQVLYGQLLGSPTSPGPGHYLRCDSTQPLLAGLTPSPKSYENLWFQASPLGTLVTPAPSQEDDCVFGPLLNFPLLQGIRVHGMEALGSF
As to the kind of experiment: saturation binding of radioligand to SH-SY5Y neuronal cells, nonlinear regression. On the procedure: (§1) Binding of [¹²⁵I]-G-CSF was measured using previously described method (Kondo, S., et al. Eur. J. Haematol. 1991, 46, 223-30) with some modifications (Pennington, A., et al. Alzheimer's Disease and Parkinsonism 2013, 3, 121). [¹²⁵I]-G-CSF (specific activity 46.55 TBq/mmol) was purchased from Perkin Elmer (Waltham, Mass.). Cells were incubated in 180 μL of binding medium containing 0.2% BSA, 5 mM MgSO₄, and 50 mM Hepes, pH 7.2 at a concentration of 1.5×10⁷ cells/mL and the appropriate concentration of [¹²⁵I]-G-CSF. Incubations were carried out at room temperature with periodic shaking to ensure continuous mixing of cells and radioactive ligand. […] Nonspecific binding of [¹²⁵I]-G-CSF was measured by incubations in the presence of a 100-fold molar excess of unlabeled G-CSF. […] Bound and free ligand activities were counted after cutting tubes in two pieces and placing the tips and tops, respectively into separate scintillation vials. […] The specific binding was determined from the amount of bound [¹²⁵I]-G-CSF blocked by competition with excess unlabeled G-CSF. The parameters of saturation binding experiments including dissociation constant (Kd), maximum binding capacity (Bmax) and binding cooperativity (h) were calculated with GraphPad Prism 5 software (La Jolla, Calif.) by using nonlinear regression analysis. […]

Assay [2] has as its target T1, Granulocyte-colony stimulating factor …. Description: saturation binding of radioligand to SH-SY5Y neuronal cells (value in the text differs from Table 2). As for the experimental part: as §1
Assay [3] shares this target. Description: saturation binding of radioligand to THP-1 monocytic cells, nonlinear regression. On the procedure: as §1
Assay [4] has the same target. As to the kind of experiment: saturation binding of radioligand to THP-1 monocytic cells (value in the text differs from Table 2). On the procedure: as §1

B1: [125I]-G-CSF (ligand)
chain: TPLGPASSLPQSFLLKCLEQVRKIQGDGAALQEKLVSECATYKLCHPEELVLLGHSLGIPWAPLSSCPSQALQLAGCLSQLHSGLFLYQGLLQALEGISPELGPTLDTLQLDVADFATTIWQQMEELGMAPALQPTQGAMPAFASAFQRRAGGVLVASHLQSFLEVSYRVLRHLAQP
modifications: 125I radiolabel (specific activity 46.55 TBq/mmol); labelled residue not stated
Consider B1, for which the Kd is 0.608 nM in assay [1], 0.607 nM in assay [2], 0.0538 nM in assay [3] and 0.0575 nM in assay [4].

As a reminder, the Kd is the constant that tells how readily two partners part at equilibrium. Higher therefore signals a looser complex.
